Reference: the supplement of paper PMC9170038

Tested on: MS2 coat protein
Experiment: apparent KD of MS2 coat protein; designed switch direction (-1 OFF switch, 1 ON switch): -1; higher = weaker reporter binding
Procedure, shortened: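 An oligonucleotide input, 200 uM small-molecule ligand, or no input was present during titration of SNAP-549-labelled MS2 coat protein, which was doubled from 0.7 or 1.5 nM to 3 µM. Designed RNA switches had been transcribed on Illumina chips by stalled E. coli RNA polymerase. Apparent KD per design is the median over clusters of curves fitted to normalised cluster fluorescence.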

[1] = input ligand: microRNA oligo, concentration not stated
[2] = Eterna round: R95, input ligand: microRNA oligo, concentration not stated
[3] = Eterna round: R95, input ligand: FMN 200 uM
[4] = Eterna round: R95, input ligand: none

Row | Sequence | apparent KD of MS2 coat protein (input ligand: FMN 200 uM) | apparent KD of MS2 coat protein [1] | apparent KD of MS2 coat protein (input ligand: none) | apparent KD of MS2 coat protein [2] | apparent KD of MS2 coat protein [3] | apparent KD of MS2 coat protein [4]
1 | CGAUAUAAGUCAGGAUAUGAGCGCAACUGACGAUCAGAAGGGACACAUGAGGAUCACCCAUGUGAUUUAUCAAUAUUAUACAUC [Prohibition 91 - Jieux - Exclusion NG 1] (Eterna round: R96, puzzle: Exclusion NG 1) | 36.5 nM | 27.3 nM | 31.6 nM |  |  | 
2 | CGAUCGGAAGGAUAUACACCUCACGUCAAACGGACAACCGGACAUGAGGAUCACCCAUGUAGAAGGUCCAAAAU [Tetixeve] (puzzle: Exclusion 2) |  |  |  | 55.7 nM |  | 
3 | CGAUGAGGAGUGAGGAUAUCGUGUUCGAAAGAACGUGAGAAGGCACAUGAGGAUCACCCAUGUGAUCCUUGUCG [Omei Ex4B A9] (Eterna round: R97, puzzle: Brourd's mod of Exclusion 4) | 57.2 nM |  | 30.4 nM |  |  | 
4 | CGAUGAGGAGUGAGGAUAUCGUGUUCGAAAGAACGUGAGAAGGCACAUGAGGAUCACCCAUGUGAUUCUUAUCG [Omei Ex4B A19] (Eterna round: R97, puzzle: Brourd's mod of Exclusion 4) | 77 nM |  | 25.5 nM |  |  | 
5 | CGAUGCUCGUGUCCACAUGAGGAUCACCCAUGUCGAGUUAGCGAGGAUAUCGGUAGCACAUAGCACGAGAAGGCGCGAACCUGA [Ex NG3 #28] (Eterna round: R96, puzzle: Exclusion NG 3) | 58.4 nM | 15.9 nM | 22 nM |  |  | 
6 | CGCAUACUAGGAUAUACAUGAGGAUCACCCAUGUCGCCGGGCCCACUCAUACUAAAACGUAGAAGGAGUUUGCC [Enlalari] (puzzle: Exclusion 3) |  |  |  | 16.5 nM |  | 
7 | CGCAUGUAAGGAUAUUAGUAGUAGUCAGAAUAGACUAUUACUGAGAAGGUACAUGAGGAUCACCCAUGUCAGCG [Eli x4 4.17] (Eterna round: R97, puzzle: Exclusion 4) | 361 nM |  | 56.4 nM |  |  | 
8 | CGCCAUCGAGUGAGGAUAUCAGGUAAAGGUGUACAUGAGAAGGCACUUGAGGAUCACCCAAGUAUUAAAGAAAA [Mareat] (Eterna round: R97, puzzle: Brourd's mod of Exclusion 4) | 356 nM |  | 48.3 nM |  |  | 
9 | CGCUACGAAGUCAGGAUAUCAGAACAAGAUAAAUAUGAGAAGGGACAUGAGGAUCACCCAUGUUCGGUGGUAGC [BmEX4 A.14] (Eterna round: R97, puzzle: Brourd's mod of Exclusion 4) | 24.6 nM |  | 21.1 nM |  |  | 
10 | CGCUAGUCAGGAUAUACGAACAUGUCAAAAGACGUGAAGGGACAUGAGGAUCACCCAUGUAGAAGGGACUAGCU [salish99_ex2_r3_013] (puzzle: Exclusion 2) |  |  |  | 24.7 nM |  | 
11 | CGCUGGACAGGAUAUGUUCUUGGGCACUUGAGGAUCACCCAAGUCAUCAAGAACUCAGGCACAGAAGGGUUUAUGG [salish99_ex5_r4_018] (Eterna round: R97, puzzle: Exclusion 5) | 41.5 nM |  | 18.9 nM |  |  | 
12 | CGCUGGGCAGGAUAUGUUCUUGAGCACUUGAGGAUCACCCAAGUCAUCAAGAACUCAGGCACAGAAGGGUUUAUGG [salish99_ex5_r4_017] (Eterna round: R97, puzzle: Exclusion 5) | 10.5 nM |  | 13.4 nM |  |  | 
13 | CGCUGGUGAGGAUAUGGGUGUGGUUACAUGAGGAUCACCCAUGUGGAGUCGCAUGUGGGUCCAGAAGGCGCGGGUG [-25.2, -23.4 kcal, 18% A] (Eterna round: R97, puzzle: Exclusion 5) | 158 nM |  | 215 nM |  |  | 
14 | CGGACCCGAGGAUAUCGUAAACCCGACAUGAGGAUCACCCAUGUCAUCCUCACGGCGCCACGAGAAGGCGGUGUUA [Ansolaedra] (puzzle: Exclusion 5) |  |  |  | 21.8 nM |  | 
15 | CGGAGACAUGAGGAUCACCCAUGUGAGGAUAUGGCGUGCGCUACUAAAGGUGGUUGCUCCAGAAGGCGCGGUGU [Eternabot (L1) Solution 3] (Eterna round: R97, puzzle: Exclusion 1) | 74.5 nM |  | 65.2 nM |  |  | 
16 | CGGCGCCUAGGAUAUACUCUGAGAAUCAGUUGGGUCUCCGGACAUGAGGAUCACCCAUGUAGAAGGAGGAAGCU [EX2 C.11] (Eterna round: R97, puzzle: Exclusion 2) | 21.3 nM |  | 18.4 nM |  |  | 

Row | Sequence | apparent KD of MS2 coat protein (input ligand: FMN 200 uM) | apparent KD of MS2 coat protein [1] | apparent KD of MS2 coat protein (input ligand: none) | apparent KD of MS2 coat protein [2] | apparent KD of MS2 coat protein [3] | apparent KD of MS2 coat protein [4]
17 | CGGCGGGCAGGAUAUGGUAAUAAUUACAUGAGGAUCACCCAUGUAGAUAUAUGGGAAUAACCAGAAGGGCUUGUUG [-20.5, -20.3 kcal, A 32%] (Eterna round: R97, puzzle: Exclusion 5) | 19.7 nM |  | 28.7 nM |  |  | 
18 | CGGCUACGAUGAGGAUAUACGCACAUGAGGAUCACCCAUGUAAAUCACGGGUAAAGAUCGCCAUCGUAGAAGGCAUAAGGGCCC [Orsole] (Eterna round: R96, puzzle: Exclusion NG 2) | 80.3 nM | 49.6 nM | 80.2 nM |  |  | 
19 | CGGCUACGAUGAGGAUAUACGCACAUGAGGAUCACCCAUGUAAAUCACGGGUAAAGAUCUUCAUCGUAGAAGGCAUAAGGGCCC [Edarbelabe] (Eterna round: R96, puzzle: Exclusion NG 2) | 31.8 nM | 20.9 nM | 31.4 nM |  |  | 
20 | CGGGUCGGAGGAUAUACAGAAGCAUCUGUGUCGGGAAUAUGACAUGAGGAUCACCCAUGUAGAAGGCCGAUCAC [Eternabot (L2) Solution 98] (Eterna round: R97, puzzle: Exclusion 2) | 485 nM |  | 80 nM |  |  | 
21 | CGGGUGAAUAGAGGAUAUAGUACAUGAGGAUCACCCAUGUAAUAAAUGAGAAUUUCGAAUGUAAUCUAGAAGGCUAGAAAACCC [Ostracism 99 - Jieux - Exclusion NG 2] (Eterna round: R96, puzzle: Exclusion NG 2) | 367 nM | 150 nM | 274 nM |  |  | 
22 | CGGGUUCGUGUUAGGAUAUGCACGCACCCGUAGCGGCAGAAGGAACAUGAGGAUCACCCAUGUGAAUAAGAAAA [BmEX4 A.3] (Eterna round: R97, puzzle: Brourd's mod of Exclusion 4) | 18.3 nM |  | 15.5 nM |  |  | 
23 | CGGGUUCGUGUUAGGAUAUGCACGCACCCGUUGCGGCAGAAGGAACAUGAGGAUCACCCAUGUGAAUAAGAAAG [BmEX4 A.21] (Eterna round: R97, puzzle: Brourd's mod of Exclusion 4) | 17.1 nM |  | 15.5 nM |  |  | 
24 | CGGUACUGAGGAUAUACAUGAGGAUCACCCAUGUGUACCAGCUAGCGUACUGGCAUUAGUAGAAGGCGGUGCUG [JL-ex3-3.19 Brourd mod] (puzzle: Exclusion 3) |  |  |  | 14.3 nM | 15.7 nM | 13.7 nM
25 | CGGUACUGAGGAUAUACAUGAGGAUCACCCAUGUGUUCUAGCUAGCGUACUGGCUAUUGUAGAAGGCGGUGCUG [JL-ex3-3.24 Brourd mod] (puzzle: Exclusion 3) |  |  |  | 17.5 nM |  | 
26 | CGGUAGUAUGUAGGAUAUCGGUCAGUUUCUGAUCGAGAAGGACAUGAGGAUCACCCAUGUAAAACGACCGGUUUCUGGUUGCCG [JL ENG1 3.55] (Eterna round: R96, puzzle: Exclusion NG 1) | 15.4 nM | 12 nM | 15.6 nM |  |  | 
27 | CGGUCGUCGUGAGGAUAUACAUGAGGAUCACCCAUGUUUCUCGGGUCGGUCGUCCGGUCGGUGGUGUAGAAGGCGCGGUGGCUG [random 3, A 14%] (Eterna round: R96, puzzle: Exclusion NG 2) | 125 nM | 95.6 nM | 100 nM |  |  | 
28 | CGGUGCUGAGGAUAUACAUGAGGAUCACCCAUGUGUUCCAGCUAGCGUACUGGCAGGUGUAGAAGGCGGUACUG [JL-ex3-3.41 Brourd mod] (puzzle: Exclusion 3) |  |  |  | 18.7 nM | 68.7 nM | 20.1 nM
29 | CGGUGCUGAGGAUAUACAUGAGGAUCACCCAUGUGUUCCUGCUAGCGUACUGGCAGAUGUAGAAGGCGGUACUG [JL-ex3-3.44 Brourd mod] (puzzle: Exclusion 3) |  |  |  | 20.8 nM | 84 nM | 26.7 nM
30 | CGGUGCUGAGGAUAUACAUGAGGAUCACCCAUGUGUUCCUGCUAGGUGACUGGCAAAUGUAGAAGGCGGUACUG [JL-ex3-3.37 Brourd mod] (puzzle: Exclusion 3) |  |  |  | 120 nM | 34.8 nM | 131 nM
31 | CGGUGCUUCUGGAAACAUGAGGAUCACCCAUGUUGAGUUAGCGAGGAUAUCGGUAACACAUGUCACGAGAAGGCGCGAACCAGA [Ex NG3 #34] (Eterna round: R96, puzzle: Exclusion NG 3) | 10.4 nM | 13 nM | 16.7 nM |  |  | 
